Here are results for one molecule from patent publication US20250177503A1, “COMPOSITIONS AND METHODS FOR TREATING AUTOIMMUNE DISORDERS” (THE REGENTS OF THE UNIVERSITY OF MICHIGAN, priority 2022, published 2025).

The test system of the test is CD4+CD25+Foxp3+T regulatory cells (Tregs). Nature of the test: Example III: dosing regimen optimisation, ND-OVA + IL-2/IC vs ND-OVA + wtIL-2, flow cytometry of peripheral blood CD4+ T cells. It is filed as in vivo, C57BL/6 mice. Particulars: summary of findings. As for the experimental part: Animals were cared for following federal, state, and local guidelines. All work performed on animals was in accordance with and approved by Institutional Animal Care & Use Committee (IACUC) at the University of Michigan, Ann Arbor. Seven-week-old female C57BL/6 mice were randomly divided into 6 groups with 5 mice in each group. For Group 1 (ND-OVA_D−3,+7+IL2/IC_D3,4,5): 0.1 mL of ND-OVA (containing 0.1 mg OVA-II peptide) was injected into each mouse subcutaneously at the tail base at Day −3 and Day 7; 0.1 mL IL2/IC (containing 1 μg murine IL-2 and […] IL-2 mAb) was injected into each mouse intraperitoneally (i.p.) at Days 0, 1, 2, and Days 10, 11, 12. For Group 2 (ND-OVA_D−4,+6+IL2/IC_D4,5,6): 0.1 mL of ND-OVA (containing 0.1 mg OVA-II peptide) was injected into each mouse subcutaneously at the tail base at Day −4 and Day 6; 0.1 mL IL2/IC (containing […] murine IL-2 and 5 μg IL-2 mAb) was injected into each mouse intraperitoneally (i.p.) at Days 0, 1, 2, and Days 10, 11, 12. For Group 3 (ND-OVA_D−3,+7+IL2/IC_D3,4,5,6,7): 0.1 mL of ND-OVA (containing 0.1 mg OVA-II peptide) was injected into each mouse subcutaneously at the tail base at Day −3 and Day 7; 0.1 mL IL2 (containing 1 μg murine IL-2) was injected into each mouse intraperitoneally (i.p.) at Days 0, 1, 2, 3, 4 and Days 10, 11, 12, 13, 14. […]
(Flow cytometry measures light scatter and fluorescence of single cells or particles in a stream.)

B1: IL-2: recombinant murine IL-2 (wild type IL-2 protein) (protein, UniProt P04351 21-169, looked up)
Interleukin-2: APTSSSTSSSTAEAQQQQQQQQQQQQHLEQLLMDLQELLSRMENYRNLKLPRMLTFKFYLPKQATELKDLQCLEDELGPLRHVLDLTQSKSFQLEDAENFISNIRVTVVKLKGSDNTFECQFDDESATVVDFLRRWIAFCQSIISTSPQ
As for B1, the “expansion of total Tregs and antigen-specific Tregs” value is “fails to expand”.
